Laboratory results reported in patent publication US7572589B2, “Diagnosis and treatment of infectious diseases through indel-differentiated proteins” (priority 2001, dated 2009).

How the values were obtained:
[1] = target: T1, SHP-1 (Homo sapiens, UniProt P29350); details: cited from earlier work
T1 construct: made in house

[2] = system: Macrophages infected with L. donovani; details: cells incubated with inhibitor prior to infection; cited from earlier work
[3] = target: T2, calmodulin (Homo sapiens, UniProt P0DP23); test: Binding of purified EF-1α to calmodulin-agarose; details: purified proteins
T2 construct: purchased Sigma Chemical Co. (St. Louis, Mo.)
Procedure: (§1) For binding assays, purified EF-1α from either leishmania or macrophages was incubated with 25 μl (packed volume) of glutathione-agarose beads containing equal amounts of GST-SHP-1. Binding was accomplished by mixing in 100 μl of binding buffer (50 mM HEPES [pH 7.5], 0.15 M NaCl, 1 mM EDTA, 1 mM DTT, 0.01% Triton X-100™ and 1% glycerol) for 2 h at 4° C. The beads were collected by centrifugation and washed four times with binding buffer. Bound EF-1α was eluted by boiling beads in Laemmli sample buffer, separated on SDS-PAGE followed by immunoblotting using anti-EF-1α. Binding of EF-1α to calmodulin-agarose was performed essentially as described above for GST-SHP-1 except that binding buffer contained 0.2 mM CaCl2 instead of EDTA. Also, after incubation, non-bound proteins were removed and affinity beads were assayed for SHP-1 phosphatase activity using pNPP as a substrate. Relative phosphatase activity was assessed by measuring changes in absorbance at 405 nm.

[4] = target: T1, SHP-1; test: Binding assay of purified EF-1α with GST-SHP-1 glutathione beads, immunoblot; details: purified proteins, glutathione-sepharose beads
Procedure: as §1

[5] = target: T3, SHP-1 (Mus musculus, UniProt P29351); test: SHP-1 phosphatase activity (pNPP) after Profect-1 delivery of purified EF-1α into macrophages; assay type: cell-based, murine; details: purified protein introduced into macrophages
T3 construct: complexes for delivery to macrophages (approximately 2×10^6); endogenous in cells; host or cells: macrophages (RAW 264.7 named in the materials)
Procedure: Approximately 1 μg of purified EF-1α from leishmania or macrophages or an equivalent amount of BSA were incubated separately with Profect 1™ reagent (Targety Systems, Santee, Calif., USA) in serum free media to prepare protein-Profect-1™ complexes for delivery to macrophages (approximately 2×10^6) according to the manufacturer's instructions. After 2-3 hr of incubation, cells were lysed in buffer C (50 mM Tris [pH 7.5], 1% Triton X-100™ and 0.15M NaCl) containing a cocktail of protease inhibitors for 20 min on ice and incubated with anti-SHP-1 for 2 h end-over-end at 4° C. Immune complexes were recovered using protein A-sepharose and after extensive washing with buffer C, immune complexes were assayed for phosphatase activity using pNPP as a substrate.

T1 sequence (P29350 whole entry): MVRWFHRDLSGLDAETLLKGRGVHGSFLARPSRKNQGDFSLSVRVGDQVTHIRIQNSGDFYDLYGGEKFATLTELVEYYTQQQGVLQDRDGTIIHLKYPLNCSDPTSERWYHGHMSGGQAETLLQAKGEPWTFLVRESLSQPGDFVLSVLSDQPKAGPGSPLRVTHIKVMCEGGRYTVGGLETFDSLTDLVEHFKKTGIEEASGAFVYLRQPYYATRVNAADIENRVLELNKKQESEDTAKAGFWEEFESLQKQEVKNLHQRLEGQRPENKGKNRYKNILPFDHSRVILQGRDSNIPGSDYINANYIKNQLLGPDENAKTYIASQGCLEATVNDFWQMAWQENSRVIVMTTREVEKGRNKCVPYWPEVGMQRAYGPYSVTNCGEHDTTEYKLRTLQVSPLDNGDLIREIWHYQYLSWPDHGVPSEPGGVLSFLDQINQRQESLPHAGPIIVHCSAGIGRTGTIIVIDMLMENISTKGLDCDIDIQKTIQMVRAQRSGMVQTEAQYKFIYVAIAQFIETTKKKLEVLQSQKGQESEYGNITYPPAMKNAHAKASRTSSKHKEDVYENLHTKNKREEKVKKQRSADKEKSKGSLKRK
T3 sequence (P29351 whole entry): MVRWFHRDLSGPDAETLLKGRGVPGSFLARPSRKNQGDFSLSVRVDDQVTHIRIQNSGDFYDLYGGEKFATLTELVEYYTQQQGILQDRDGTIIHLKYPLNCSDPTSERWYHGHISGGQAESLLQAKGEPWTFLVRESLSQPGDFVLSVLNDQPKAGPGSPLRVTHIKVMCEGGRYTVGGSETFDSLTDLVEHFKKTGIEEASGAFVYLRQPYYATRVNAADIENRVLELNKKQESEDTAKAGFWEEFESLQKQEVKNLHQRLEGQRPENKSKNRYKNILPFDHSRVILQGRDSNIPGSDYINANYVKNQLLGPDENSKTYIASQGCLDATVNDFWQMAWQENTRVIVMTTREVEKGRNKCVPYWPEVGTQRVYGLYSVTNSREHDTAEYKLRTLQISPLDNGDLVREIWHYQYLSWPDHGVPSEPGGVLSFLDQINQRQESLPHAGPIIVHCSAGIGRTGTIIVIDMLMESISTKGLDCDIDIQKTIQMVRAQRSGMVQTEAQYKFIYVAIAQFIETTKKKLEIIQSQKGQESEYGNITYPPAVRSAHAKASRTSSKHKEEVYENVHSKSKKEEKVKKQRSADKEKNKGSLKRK

O.O.O.O.O.O.O.O.O.O=C([O-])[C@@H]1[O][Sb]2([O-])([O][Sb]34([OH])[O][C@H]([C@H](O)CO)[C@H]([O]3)[C@H](C(=O)[O-])[O]4)[O][C@H]([C@H](O)CO)[C@@H]1[O]2.[Na+].[Na+].[Na+] [sodium stibogluconate]
inhibition of SHP-1 [1]: inhibitor of SHP-1

sodium orthovandate
phenotype of impaired cell signaling and cell deactivation [2]: reversed

B1: macrophage EF-1α: EF-1α purified to near homogeneity from murine macrophages (RAW 264.7) (protein)
chain: GKEKTHINIVVIGHVDSGKSTTTGHLIYKCGGIDKRTIEKFEKEAAEMGKGSFKYAWVLDKLKAERERGITIDISLWKFETSKYYVTIIDAPGHRDFIKNMITGTSQADCAVLIVAAGVGEFEAGISKNGQTREHALLAYTLGVKQLIVGVNKMDSTEPPYSQKRYEEIVKEVSTYIKKIGYNPDTVAFVPISGWNGDNMLEPSANMPWFKGWKVTRKDGSASGTTLLEALDCILPPTRPTDKPLRLPLQDVYKIGGIGTVPVGRVETGVLKPGMVVTFAPVNVTTEVKSVEMHHEALSEALPGDNVGFNVKNVSVKDVRRGNVAGDSKNDPPMEAAGFTAQVIILNHPGQISAGYAPVLDCHTAHIACKFAELKEKIDRRSGKKLEDGPKFLKSGDAAIVDMVPGKPMCVESFSDYPPLGRFAVRDMRQTVAVGVIKAVDKKAAGAGKVTKSAQKAQKAK
binding to calmodulin [3]: bound directly and with similar affinities | binding to GST-SHP-1 [4]: comparatively little binding | activation of SHP-1 [5]: activation of SHP-1 was not observed
